# Source: PMC11369598
# B1: KLHL6 wild type, C-terminal Strep-HA tag (KLHL6-strHA) [human] / endogenous KLHL6 [human (endogenous in SuDHL5 and SuDHL4)] (parent)
# chain 1: MLMAGQRGAWTMGDVVEKSLEGPLAPSTDEPSQKTGDLVEILNGEKVKFDDAGLSLILQNGLETLRMENALTDVILCVDIQEFSCHRVVLAAASNYFRAMFCNDLKEKYEKRIIIKGVDAETMHTLLDYTYTSKALITKQNVQRVLEAANLFQFLRMVDACASFLTEALNPENCVGILRLADTHSLDSLKKQVQSYIIQNFVQILNSEEFLDLPVDTLHHILKSDDLYVTEEAQVFETVMSWVRHKPSERLCLLPYVLENVRLPLLDPWYFVETVEADPLIRQCPEVFPLLQEARMYHLSGNEIISERTKPRMHEFQSEVFMIIGGCTKDERFVAEVTCLDPLRRSRLEVAKLPLTEHELESENKKWVEFACVTLKNEVYISGGKETQHDVWKYNSSINKWIQIEYLNIGRWRHKMVVLGGKVYVIGGFDGLQRINNVETYDPFHNCWSEAAPLLVHVSSFAATSHKKKLYVIGGGPNGKLATDKTQCYDPSTNKWSLKAAMPVEAKCINAVSFRDRIYVVGGAMRALYAYSPLEDSWCLVTQLSHERASCGIAPCNNRLYITGGRDEKNEVIATVLCWDPEAQKLTEECVLPRGVSHHGSVTIRKSYTHIRRIVPGAVSV
# chain 2: B1 chain 1
# B2: KLHL6 wild type, C-terminal Strep-HA tag (KLHL6-strHA) [human] / KLHL26 [human (endogenous in SuDHL5)] (parent)
# chain 1: B1 chain 1
# chain 2: MAESGGSSGGAGGGGAFGAGPGPERPNSTADKNGALKCTFSAPSHSTSLLQGLATLRAQGQLLDVVLTINREAFPAHKVVLAACSDYFRAMFTGGMREASQDVIELKGVSARGLRHIIDFAYSAEVTLDLDCVQDVLGAAVFLQMLPVVELCEEFLKAAMSVETCLNIGQMATTFSLASLRESVDAFTFRHFLQIAEEEDFLRLPLERLVFFLQSNRLQSCAEIDLFRAAVRWLQHDPARRPRASHVLCHIRFPLMQSSELVDSVQTLDIMVEDVLCRQYLLEAFNYQVLPFRQHEMQSPRTAVRSDVPSLVTFGGTPYTDSDRSVSSKVYQLPEPGARHFRELTEMEVGCSHTCVAVLDNFVYVAGGQHLQYRSGEGAVDACYRYDPHLNRWLRLQAMQESRIQFQLNVLCGMVYATGGRNRAGSLASVERYCPRRNEWGYACSLKRRTWGHAGAASGGRLYISGGYGISVEDKKALHCYDPVADQWEFKAPMSEPRVLHAMVGAGGRIYALGGRMDHVDRCFDVLAVEYYVPETDQWTSVSPMRAGQSEAGCCLLERKIYIVGGYNWRLNNVTGIVQVYNTDTDEWERDLHFPESFAGIACAPVLLPRAGTRR
# B3: KLHL6 wild type fused to C-terminal BioID2 [human] / LuZP1 [human (endogenous in SuDHL5 and U2932)] (parent)
# chain 1: B1 chain 1
# chain 2: MAEFTSYKETASSRHLRFKLQSLSRRLDELEEATKNLQKAEDELLDLQDKVIQAEGSNSSMLAEIEVLRQRVLRIEGKDEEIKRAEDLCRLMKEKLEEEENLTRELKSEIERLQKRMAELEKLEEAFSRSKNDCTQLCLSLNEERNLTKKISSELEMLRVKVKELESSEDRLDKTEQSLASELEKLKSLTLSFVSERKYLNEKEKENEKLIKELTQKLEQNKKMNRDYTRNASNLERNDLRIEDGISSTLPSKESRRKGGLDYLKQVENETRNKSENEKNRNQEDNKVKDLNQEIEKLKTQIKHFESLEEELKKMKSKNNDLQDNYLSEQNKNKLLASQLEEIKLQIKKQKELENGEVEGEDAFLSSKGRHERTKFRGHGSEASVSKHTARELSPQHKRERLRNREFALNNENYSLSNRQVSSPSFTNRRAAKASHMGVSTDSGTQETKKTEDRFVPGSSQSEGKKSREQPSVLSRYPPAAQEHSKAWKGTSKPGTESGLKGKVEKTTRTFSDTTHGSVPSDPLGRADKASDTSSETVFGKRGHVLGNGSQVTQAANSGCSKAIGALASSRRSSSEGLSKGKKAANGLEADNSCPNSKAPVLSKYPYSCRSQENILQGFSTSHKEGVNQPAAVVMEDSSPHEALRCRVIKSSGREKPDSDDDLDIASLVTAKLVNTTITPEPEPKPQPNSREKAKTRGAPRTSLFENDKDAGMENESVKSVRASTNTMELPDTNGAGVKSQRPFSPREALRSRAIIKPVIVDKDVKKIMGGSGTETTLEKQKPVSKPGPNKVTSSITIYPSDSSSPRAAPGEALRERHTSTSNIQVGLAELTSVSNHVSSPFELSIHKHDITLQLAEAERMADGPLKDRPETVVSRSSIIIKPSDPVERNSHAPPAETIRWKSHSAPSEVGFSDARHVTVRNAWKSRRDLKSLEDPPTRIGKNVESTNSNAYTQRSSTDFSELEQPRSCLFEQGTRRVGPSSGDAPEPSSRRTQSSLTVSEVLTRRNRVGDTITVAAWNHSASMEEEGEDCTLSVYRQLHNSLDPSELPGKQGLPESGRVRAEERLRPTRPCAEEN
# B4: KLHL6 wild type, C-terminal Strep-HA tag (KLHL6-strHA) [human] / KLHL7 [human (endogenous in SuDHL5)] (parent)
# chain 1: B1 chain 1
# chain 2: MAASGVEKSSKKKTEKKLAAREEAKLLAGFMGVMNNMRKQKTLCDVILMVQERKIPAHRVVLAAASHFFNLMFTTNMLESKSFEVELKDAEPDIIEQLVEFAYTARISVNSNNVQSLLDAANQYQIEPVKKMCVDFLKEQVDASNCLGISVLAECLDCPELKATADDFIHQHFTEVYKTDEFLQLDVKRVTHLLNQDTLTVRAEDQVYDAAVRWLKYDEPNRQPFMVDILAKVRFPLISKNFLSKTVQAEPLIQDNPECLKMVISGMRYHLLSPEDREELVDGTRPRRKKHDYRIALFGGSQPQSCRYFNPKDYSWTDIRCPFEKRRDAACVFWDNVVYILGGSQLFPIKRMDCYNVVKDSWYSKLGPPTPRDSLAACAAEGKIYTSGGSEVGNSALYLFECYDTRTESWHTKPSMLTQRCSHGMVEANGLIYVCGGSLGNNVSGRVLNSCEVYDPATETWTELCPMIEARKNHGLVFVKDKIFAVGGQNGLGGLDNVEYYDIKLNEWKMVSPMPWKGVTVKCAAVGSIVYVLAGFQGVGRLGHILEYNTETDKWVANSKVRAFPVTSCLICVVDTCGANEETLET
# B5: KLHL6 wild type, C-terminal Strep-HA tag (KLHL6-strHA) [human] / adapter protein BANK1 [human (endogenous in SuDHL5 and U2932)] (parent)
# chain 1: B1 chain 1
# chain 2: MLPAAPGKGLGSPDPAPCGPAPPGNTKDIIMIYEEDAEEWALYLTEVFLHVVKREAILLYRLENFSFRHLELLNLTSYKCKLLILSNSLLRDLTPKKCQFLEKILHSPKSVVTLLCGVKSSDQLYELLNISQSRWEISTEQEPEDYISVIQSIIFKDSEDYFEVNIPTDLRAKHSGEISERKEIEELSEASRNTIPLAVVLPTEIPCENPGEIFIILRDEVIGDTVEVEFTSSNKRIRTRPALWNKKVWCMKALEFPAGSVHVNVYCDGIVKATTKIKYYPTAKAKECLFRMADSGESLCQNSIEELDGVLTSIFKHEIPYYEFQSLQTEICSQNKYTHFKELPTLLHCAAKFGLKNLAIHLLQCSGATWASKMKNMEGSDPAHIAERHGHKELKKIFEDFSIQEIDINNEQENDYEEDIASFSTYIPSTQNPAFHHESRKTYGQSADGAEANEMEGEGKQNGSGMETKHSPLEVGSESSEDQYDDLYVFIPGADPENNSQEPLMSSRPPLPPPRPVANAFQLERPHFTLPGTMVEGQMERSQNWGHPGVRQETGDEPKGEKEKKEEEKEQEEEEDPYTFAEIDDSEYDMILANLSIKKKTGSRSFIINRPPAPTPRPTSIPPKEETTPYIAQVFQQKTARRQSDDDKFCGLPKKQDRARIESPAFSTLRGCLTDGQEELILLQEKVKNGKMSMDEALEKFKHWQMGKSGLEMIQQEKLRQLRDCIIGKRPEEENVYNKLTIVHHPGGKETAHNENKFYNVHFSNKLPARPQVEKEFGFCCKKDH
# Variants of: B1
# Experiment: AP-MS (spectral counts of the WT, leucine-65 peptide in the L65P bait pull-down)
# Details: with endogenous KLHL6 [human (endogenous in SuDHL5 and SuDHL4)]; SuDHL5 cells; read off a plot
row,Variant,response (spectral counts)
1,chain 1 L65P,5

# Variants of: B1
# Experiment: AP-MS (spectral counts of the WT, leucine-90 peptide in the L90F bait pull-down)
# Details: with endogenous KLHL6 [human (endogenous in SuDHL5 and SuDHL4)]; SuDHL5 cells; read off a plot
row,Variant,response (spectral counts)
1,chain 1 L90F,1

# Variants of: B2
# Experiment: AP-MS (Strep affinity purification, spectral counts)
# Details: with KLHL26 [human (endogenous in SuDHL5)]; SuDHL5 cells; read off a plot
row,Variant,response (spectral counts)
1,chain 1 E568K,15
2,chain 1 L90F,0.5
3,chain 1 L65P,0

# Variants of: B2
# Experiment: AP-MS (Strep affinity purification, mass spectrometry; DESeq2 model)
# Details: with KLHL26 [human (endogenous in SuDHL5)]; SuDHL5 cells; WT eight replicates, L90F eight replicates; read off a plot
row,Variant,screen value
1,chain 1 L90F,2.7 log2

# Same assay, conditions: with KLHL26 [human (endogenous in SuDHL5)]; SuDHL5 cells; WT eight replicates, L65P four replicates; read off a plot
row,Variant,screen value
1,chain 1 L65P,4.4 log2

# Variants of: B3
# Experiment: BioID2 proximity labelling, mass spectrometry (spectral counts)
# Details: with LuZP1 [human (endogenous in SuDHL5 and U2932)]; SuDHL5 cells; read off a plot
row,Variant,response (spectral counts)
1,chain 1 E547K,1.5
2,chain 1 L65P,13
3,chain 1 E568K,1.5

# Variants of: B3
# Experiment: BioID2 proximity labelling, mass spectrometry
# Details: with LuZP1 [human (endogenous in SuDHL5 and U2932)]; SuDHL5 cells; read off a plot
row,Variant,screen value
1,chain 1 E568K,2.4 log2

# Variants of: B4
# Experiment: AP-MS (Strep affinity purification, spectral counts)
# Details: with KLHL7 [human (endogenous in SuDHL5)]; SuDHL5 cells; read off a plot
row,Variant,response (spectral counts)
1,chain 1 L90F,0
2,chain 1 E568K,20
3,chain 1 L65P,0

# Variants of: B4
# Experiment: AP-MS (Strep affinity purification, mass spectrometry; DESeq2 model)
# Details: with KLHL7 [human (endogenous in SuDHL5)]; SuDHL5 cells; WT eight replicates, L90F eight replicates; read off a plot
row,Variant,screen value
1,chain 1 L90F,4.9 log2

# Same assay, conditions: with KLHL7 [human (endogenous in SuDHL5)]; SuDHL5 cells; WT eight replicates, L65P four replicates; read off a plot
row,Variant,screen value
1,chain 1 L65P,4.9 log2

# Variants of: B5
# Experiment: AP-MS (Strep affinity purification, spectral counts)
# Details: with adapter protein BANK1 [human (endogenous in SuDHL5 and U2932)]; SuDHL5 cells; read off a plot
row,Variant,response (spectral counts)
1,chain 1 E568K,2
2,chain 1 L65P,0.5
3,chain 1 L90F,7.5
